Experiment [1] has as its target human prothrombin with His tag (human) (UniProt P00734). In words: Biacore. On the technique in general: SPR reads the build-up and loss of mass on a sensor chip optically.
The target in experiment [2] is human thrombin with His tag (human) (UniProt P00734). Put plainly: Biacore.
Experiment [3] has as its target human prothrombin with His tag (human) (UniProt P00734). Put plainly: Biacore; reference h1601-008.
The target of experiment [4] is human thrombin with His tag (human) (UniProt P00734). Put plainly: Biacore; reference h1601-008.
Experiment [5] has the same target. In words: Biacore; ratio of KD on pro-thrombin to KD on thrombin.

Usually Kd stands for the constant that tells how readily two partners part at equilibrium. Consider Ichorcumab (antibody), for which the results for the Kd in experiment [1] and in experiment [2] were 131 nM and 2.57 nM, respectively. Also, the Fold of Affinity relative to h1601-008 is 0.6 fold in experiment [3] and 3 fold in experiment [4]. Besides, the Selective activity in experiment [5] was determined as 51.

For the origin of these results see US20190315886A1.
